Test results from patent US10253323B2, “Chloroplast transit peptides” (priority 2015, dated 2019).

B1: TraP26::dgt-28: TraP26-dgt28 fusion gene (SEQ ID NO:27) in construct pDAB114286, expressed in T1 Arabidopsis (protein)
chain: MAQVSMIPNAIQAPCSISLSKSQAGKSVRKVSLKPNQHAAWGLRRSGMRVGNPEVVVSASARGMPALSLPGSKSITARALFLAAAADGVTTLVRPLRSDDTEGFAEGLVRLGYRVGRTPDTWQVDGRPQGPAVAEADVYCRDGATTARFLPTLAAAGHGTYRFDASPQMRRRPLLPLSRALRDLGVDLRHEEAEGHHPLTVRAAGVEGGEVTLDAGQSSQYLTALLLLGPLTRQGLRIRVTDLVSAPYVEITLAMMRAFGVEVAREGDVFVVPPGGYRATTYAIEPDASTASYFFAAAALTPGAEVTVPGLGTGALQGDLGFVDVLRRMGAEVSVGADATTVRGTGELRGLTANMRDISDTMPTLAAIAPFASAPVRIEDVANTRVKECDRLEACAENLRRLGVRVATGPDWIEIHPGPATGAQVTSYGDHRIVMSFAVTGLRVPGISFDDPGCVRKTFPGFHEAFAELRRGIGS
modifications: Trap26 DGT28 fusion coding sequence
B2: TraP27::dgt-28: TraP27-dgt28 fusion gene (SEQ ID NO:28) in construct pDAB114287, expressed in T1 Arabidopsis (protein)
chain: MATFTRVCHTARKSFVSLSNSQANSPVSVRFLSLPMPAARPAVKSGVRLWGCRLSFKVSASARGMPALSLPGSKSITARALFLAAAADGVTTLVRPLRSDDTEGFAEGLVRLGYRVGRTPDTWQVDGRPQGPAVAEADVYCRDGATTARFLPTLAAAGHGTYRFDASPQMRRRPLLPLSRALRDLGVDLRHEEAEGHHPLTVRAAGVEGGEVTLDAGQSSQYLTALLLLGPLTRQGLRIRVTDLVSAPYVEITLAMMRAFGVEVAREGDVFVVPPGGYRATTYAIEPDASTASYFFAAAALTPGAEVTVPGLGTGALQGDLGFVDVLRRMGAEVSVGADATTVRGTGELRGLTANMRDISDTMPTLAAIAPFASAPVRIEDVANTRVKECDRLEACAENLRRLGVRVATGPDWIEIHPGPATGAQVTSYGDHRIVMSFAVTGLRVPGISFDDPGCVRKTFPGFHEAFAELRRGIGS
modifications: Trap27 DGT28 fusion coding sequence

Columns and labels:
[1] = test system: Wildtype, non-transformed Arabidopsis thaliana c.v. Columbia; assay: Glyphosate response of non-transformed control Arabidopsis; format: in vivo; conditions: WT (non-transformed control), 14 days after application
Description: (§1) The Arabidopsis T1 transformants (from transformation with pDAB114286 or pDAB114287) were first selected from the background of untransformed seed using a glufosinate selection scheme. Three flats or 50,000 seed were analyzed for each T1 construct. The selected T1 plants were molecularly characterized (as described above) and events with a range of copy number were sprayed with various rates of commercial glyphosate.
(§2) Transgenic T1 Arabidopsis plants containing the dgt-28 transgene were sprayed with differing rates of glyphosate. Elevated rates were applied in this study to determine the relative levels of resistance (420, 840, 1,680 or 3,360 g ae/ha). The typical 1× field usage rate of glyphosate is 1120 g ae/ha. The response of these plants is presented in terms of % visual injury 2 weeks after treatment (WAT). The T1 Arabidopsis plants that were used in this study were of variable copy number for the dgt-28 transgene. The low copy dgt-28 T1 Arabidopsis plants were self-pollinated and used to produce T2 plants.
(§3) An arithmetic mean and standard deviation is presented for each construct used for Arabidopsis transformation. The range in individual response is also indicated in the last column for each rate and transformation. Wildtype, non-transformed Arabidopsis thaliana c.v. Columbia served as a glyphosate sensitive control.

[2] = test system: dgt-28 transformed T1 Arabidopsis; assay: Glyphosate tolerance of dgt-28 transformed T1 Arabidopsis; format: in vivo, Arabidopsis thaliana; conditions: 14 days after application
Description: as §1, §2, §3

[3] = 420 g ae/ha glyphosate postemergence
[4] = 840 g ae/ha glyphosate postemergence
[5] = 1680 g ae/ha glyphosate postemergence
[6] = 3360 g ae/ha glyphosate postemergence

Molecule	% Injury Analysis Ave [2, 3]	% Injury Analysis Range (%) [2, 3]	% Injury Range (No. Replicates) 20-40% [2, 3]	% Injury Range (No. Replicates) <20% [2, 3]	% Injury Range (No. Replicates) >40% [2, 3]	% Injury Analysis Ave [2, 4]	% Injury Analysis Range (%) [2, 4]	% Injury Range (No. Replicates) 20-40% [2, 4]	% Injury Range (No. Replicates) <20% [2, 4]	% Injury Range (No. Replicates) >40% [2, 4]	% Injury Analysis Ave [2, 5]	% Injury Analysis Range (%) [2, 5]	% Injury Range (No. Replicates) 20-40% [2, 5]	% Injury Range (No. Replicates) <20% [2, 5]	% Injury Range (No. Replicates) >40% [2, 5]	% Injury Analysis Ave [2, 6]	% Injury Analysis Range (%) [2, 6]	% Injury Range (No. Replicates) 20-40% [2, 6]	% Injury Range (No. Replicates) <20% [2, 6]	% Injury Range (No. Replicates) >40% [2, 6]	also measured
O=C(O)CNCP(=O)(O)O [glyphosate]	–	–	–	–	–	–	–	–	–	–	–	–	–	–	–	–	–	–	–	–	% Injury Analysis Ave ([1]; 420 g ae/ha postemergence): 100.0%; % Injury Analysis Range (%) ([1]; 420 g ae/ha postemergence): 100%; % Injury Range (No. Replicates) 20-40% ([1]; 420 g ae/ha postemergence): 0; % Injury Range (No. Replicates) <20% ([1]; 420 g ae/ha postemergence): 0; % Injury Range (No. Replicates) >40% ([1]; 420 g ae/ha postemergence): 4; % Injury Analysis Ave ([1]; 840 g ae/ha postemergence): 100.0%; % Injury Analysis Range (%) ([1]; 840 g ae/ha postemergence): 100%; % Injury Range (No. Replicates) 20-40% ([1]; 840 g ae/ha postemergence): 0; % Injury Range (No. Replicates) <20% ([1]; 840 g ae/ha postemergence): 0; % Injury Range (No. Replicates) >40% ([1]; 840 g ae/ha postemergence): 4; % Injury Analysis Ave ([1]; 1680 g ae/ha postemergence): 100.0%; % Injury Analysis Range (%) ([1]; 1680 g ae/ha postemergence): 100%; % Injury Range (No. Replicates) 20-40% ([1]; 1680 g ae/ha postemergence): 0; % Injury Range (No. Replicates) <20% ([1]; 1680 g ae/ha postemergence): 0; % Injury Range (No. Replicates) >40% ([1]; 1680 g ae/ha postemergence): 4; % Injury Analysis Ave ([1]; 3360 g ae/ha postemergence): 100.0%; % Injury Analysis Range (%) ([1]; 3360 g ae/ha postemergence): 100%; % Injury Range (No. Replicates) 20-40% ([1]; 3360 g ae/ha postemergence): 0; % Injury Range (No. Replicates) <20% ([1]; 3360 g ae/ha postemergence): 0; % Injury Range (No. Replicates) >40% ([1]; 3360 g ae/ha postemergence): 4
B1	0.0%	0%	0	4	0	0.0%	0%	0	4	0	10.0%	10%	0	4	0	16.3%	15-20%	1	3	0	–
B2	19.0%	10-30%	1	3	0	15.8%	10-20%	1	3	0	18.8%	15-20%	3	1	0	25.0%	25%	4	0	0	–
